Test results from patent US20170157188A1.

What was measured:
[1] = target: cell-surface mouse PD-1 on EL4 and RMA T lymphoma cells (mouse) (UniProt Q02242); assay: flow cytometry competition on EL4 cells against mPD-L1-hFc at 2 µg/ml
[2] = target: mouse PD-1 (coated in the competition ELISA) (mouse) (UniProt Q02242); assay: competition ELISA, blocks mouse PD-L1 biot on coated mouse PD-1; dimeric fraction more efficient than monomeric

For “commercially available anti-mPD-1 antibody J43 (BioXCell)”, which IC50 [1] is on record?
The IC50 was 1.6 µg/mL.

B1: WRTG18616-encoded anti-mPD-1 scFv, dimeric fraction (scFv, part only; not given: glycine-serine linker, V domains shown)
VH: EVRLLESGGGLVKPEGSLKLSCVASGFTFSDYFMSWVRQAPGKGLEWVAHIYTKSYNYATYYSGSVKGRFTISRDDSRSMVYLQMNNLRTEDTATYYCTRDGSGYPSLDFWGQGTQVTVSS
VL: YELTQPPSASVNVGETVKITCSGDQLPKYFADWFHQRSDQTILQVIYDDNKRPSGIPERISGSSSGTTATLTIRDVRAEDEGDYYCFSGYVDSDSKLYVFGSGTQLTVLHHHHHH
modifications: Dimer of two identical scFv polypeptides (first gel-filtration peak); one copy is given. VH and VL are joined in the real chain by a Gly-Ser linker of undisclosed letters and are given here as two chains.
For B1, which difference in EC50 against the monomeric scFv [2] is on record?
The difference in EC50 against the monomeric scFv was 1 log.
